Experimental data from patent publication US20090202562A1 (Biogen, published 2009).

Columns and labels:
[1] = target: T1, rat GFRalpha3 (rat, UniProt O35118 29-370 (mouse entry)); assay: FACS
T1 construct: Expressed on transiently transfected HEK 293 EBNA cells; also called RetL3
T1 chain: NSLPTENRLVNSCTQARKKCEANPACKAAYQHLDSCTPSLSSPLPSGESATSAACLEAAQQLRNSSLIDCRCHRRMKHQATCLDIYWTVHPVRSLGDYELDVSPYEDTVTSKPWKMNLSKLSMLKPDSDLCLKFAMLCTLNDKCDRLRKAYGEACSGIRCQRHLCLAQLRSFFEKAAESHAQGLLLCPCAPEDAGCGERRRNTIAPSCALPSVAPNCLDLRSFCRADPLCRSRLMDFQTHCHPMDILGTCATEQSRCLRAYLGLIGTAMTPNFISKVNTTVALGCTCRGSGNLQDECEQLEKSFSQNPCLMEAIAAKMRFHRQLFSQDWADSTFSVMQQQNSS

[2] = target: T2, rat GFRalpha1 (rat, UniProt Q62997 25-430); assay: FACS on transiently transfected HEK 293 EBNA cells
T2 construct: whole, on cells; Expressed on transiently transfected HEK 293 EBNA cells
T2 sequence (looked up): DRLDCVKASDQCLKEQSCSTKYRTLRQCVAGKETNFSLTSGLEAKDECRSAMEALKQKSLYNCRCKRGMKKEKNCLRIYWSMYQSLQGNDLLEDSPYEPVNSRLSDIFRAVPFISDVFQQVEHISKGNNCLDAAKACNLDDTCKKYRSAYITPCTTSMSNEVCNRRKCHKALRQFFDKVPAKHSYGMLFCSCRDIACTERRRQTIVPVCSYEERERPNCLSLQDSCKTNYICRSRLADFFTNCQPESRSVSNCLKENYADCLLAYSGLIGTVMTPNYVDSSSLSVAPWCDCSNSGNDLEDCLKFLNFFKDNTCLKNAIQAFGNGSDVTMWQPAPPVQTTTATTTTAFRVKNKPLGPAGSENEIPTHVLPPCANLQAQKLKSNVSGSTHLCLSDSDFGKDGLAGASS
Method: (§1) HEK 293 EBNA cells were transiently transfected with an empty vector, a vector encoding rat GFRalpha1, a vector encoding rat GFRalpha2, or a vector encoding rat GFRalpha3. These cells were stained with 10 ug/ml of the anti-GFRalpha3 polyclonal antibody R11 (a rabbit polyclonal antibody generated by immunization with the peptide […] (SEQ ID NO:14), which contains a murine GFRalpha3 sequence and a heterologous GC sequence at its carboxy terminus) or with 10 ug/ml MOR02683. The vector-transfected cells shifted slightly above the unstained baseline because the HEK 293 EBNA cells endogenously expresses GFRalpha3 (FIGS. 2A and 2B). […] The lack of shift of the GFRalpha1-transfected cells and GFRalpha2-transfected cells as compared to vector-transfected cells indicated the specificity of MOR02683 for GFRalpha3 over its close family members (FIGS. 2A and 2B).

[3] = target: T3, rat GFRalpha2 (rat, UniProt O35977 22-444); assay: FACS on transiently transfected HEK 293 EBNA cells
T3 construct: whole, on cells; Expressed on transiently transfected HEK 293 EBNA cells
T3 sequence: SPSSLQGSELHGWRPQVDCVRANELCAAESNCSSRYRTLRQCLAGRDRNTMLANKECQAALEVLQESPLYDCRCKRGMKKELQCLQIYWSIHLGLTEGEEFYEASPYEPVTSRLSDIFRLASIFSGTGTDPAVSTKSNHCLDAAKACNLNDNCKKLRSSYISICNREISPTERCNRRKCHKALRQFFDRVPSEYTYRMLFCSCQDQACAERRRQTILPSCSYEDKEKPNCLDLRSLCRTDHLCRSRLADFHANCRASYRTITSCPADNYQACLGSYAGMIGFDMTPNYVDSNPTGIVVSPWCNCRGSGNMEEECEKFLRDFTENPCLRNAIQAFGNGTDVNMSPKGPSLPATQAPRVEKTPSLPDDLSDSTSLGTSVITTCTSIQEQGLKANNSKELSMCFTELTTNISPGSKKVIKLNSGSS
Method: as §1

[4] = target: murine GFRalpha3-Ig (murine); assay: inhibition of Neublastin-GFRalpha3-Ret ternary complex formation: MOR02683 preincubated with 1 ug/ml murine GFRalpha3-Ig, 50 ng/ml rat Neublastin and rat Ret-AP conditioned media; capture on an anti-human Fc plate; AP chemiluminescence
Method: MOR02683 was preincubated with 1 ug/ml murine GFRalpha3-Ig ([…] […] […] […] […] […] […] […] […] […] […] […]; SEQ ID NO:19) and 50 ng/ml rat Neublastin (113 amino acid form; […] […] TACGCLG; SEQ ID NO:20) in rat Ret-alkaline phosphatase ([…] […] […] […] […] […] […] […] […] […] […] […] […] […] […] […] […] […] […] […] […] […]; SEQ ID NO:21) conditioned media for an hour before being added to the coated plate for another hour. The alkaline phosphatase (AP) was visualized with a chemiluminescent substrate and the plate was read on a luminometer.

[5] = target: T4, murine GFRalpha3 (murine, UniProt O35118 29-371); assay: Neublastin competition binding on NB41A3-L3 cells (murine GFRalpha3 plus endogenous murine Ret): 0-10 uM rat Neublastin for 10 min at 4 C, unoccupied GFRalpha3 probed with 10 ug/ml biotinylated MOR02683, FACS with PE-Streptavidin, hyperbolic fit
T4 construct: also called murine GFRalpha3 on NB41A3-L3 cells
T4 sequence: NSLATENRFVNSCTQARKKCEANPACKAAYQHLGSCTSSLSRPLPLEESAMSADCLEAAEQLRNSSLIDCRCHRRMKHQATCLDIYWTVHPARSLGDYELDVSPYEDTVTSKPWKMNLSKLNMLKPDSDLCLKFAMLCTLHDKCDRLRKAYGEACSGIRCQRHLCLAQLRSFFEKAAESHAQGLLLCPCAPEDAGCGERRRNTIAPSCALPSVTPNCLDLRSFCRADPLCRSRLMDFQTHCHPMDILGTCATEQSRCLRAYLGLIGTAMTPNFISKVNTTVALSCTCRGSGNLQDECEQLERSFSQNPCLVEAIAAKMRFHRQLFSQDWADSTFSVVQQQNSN
Method: NB41A3-L3 cells were incubated with different concentrations of rat Neublastin for 10 minutes at 4° C. During the incubation period, the binding reaction of Neublastin to GFRalpha3 and Ret on the cell surface reaches equilibrium. Cells were then quenched with a high concentration (10 ug/ml) of biotinylated MOR02683 for 2 minutes. MOR02683 can only bind to GFRalpha3 receptors that are not already occupied by Neublastin and thus acts as a probe for unoccupied GFRalpha3 receptors. During the short incubation time of the quenching reaction, no re-equilibration between Neublastin and MOR02683 binding occurs. The amount of MOR02683 bound to GFRalpha3 was then quantified via FACS analysis using PE-Streptavidin as a secondary reagent.
Neublastin competition binding was used to measure Neublastin binding affinities to receptors on the cell surface. NB41A3-L3 cells were incubated with 0-10 uM rat Neublastin for 10 minutes at 4° C. Cells were then quenched with 10 ug/ml biotinylated MOR02683 for 2 minutes. The amount of MOR02683 bound to GFRalpha3 was quantified by FACS using PE-Streptavidin as a secondary reagent. […] A Neublastin concentration-dependent reduction in the subsequent binding of MOR02683 was observed, but not with the control antibody MOR02682 (FIG. 8).

B1: Fab fragment MOR02683 (Fab, V domains shown)
VH: QVQLVESGGGLVQPGGSLRLSCAASGFTFSNYTMHWVRQAPGKGLEWVSVISYDGSSTYYADSVKGRFTISRDNSKNTLYLQMNSLRAEDTAVYYCARIVRMDIWGQGTLVTVSS
VL: DIVLTQSPATLSLSPGERATLSCRASQSVNSHYLAWYQQKPGQAPRLLIYGASNRATGVPARFSGSGSGTDFTLTISSLEPEDFATYYCQQMDGFPFTFGQGTKVEIKR
notes: From the HuCAL GOLD Fab phage display library; also called anti-GFRalpha3 Fab fragment MOR02683
- binding result [1]: binds
- binding result [2]: no binding (tested: 10 ug/ml)
- binding result [3]: no binding (tested: 10 ug/ml)
- EC50 [4]: ~0.25 µg/mL

B2: rat Neublastin (113 amino acid form) (ligand)
chain: AGTRSSRARATDARGCRLRSQLVPVSALGLGHSSDELIRFRFCSGSCRRARSPHDLSLASLLDAGALRSPPGSRPISQPCCRPTRYEAVSFMDVNSTWRTVDHLSATACGCLG
- Kd [5]: ~200 nM
